Results as given in patent publication US20090156525A1, “Low-Density Lipoprotein Receptor-Related Protein 2 Clears Amyloid-Beta Peptide A cross the Blood-Brain Barrier via Apolipoprotein J” (priority 2005, published 2009).

Legend:
[1] = CSF clearance study: microinjection into the lateral ventricle; assay type: in vivo; conditions: 40 nM; after 30 minutes; microinjection into the lateral ventricles; FIG. 1E
Description: In the CSF clearance studies, 0.5 μl of ^125I-apoJ (40 nM) was micro-injected into the right lateral ventricles (coordinates (mm) from bregma: antero-posterior −0.5, mediolateral +1.0, dorsoventral −2.2) simultaneously with ^14C-inulin (the inert reference molecule), the brain was removed after 30 minutes, and radiolabel was counted.
(§1) Percentage ^125I-(TCA precipitable) recovery in brain=NB/NI×100. Where NB is the ^125I-(TCA precipitable) recovered in brain and NI is the ^125I-(TCA precipitable) injected into brain ISF or CSF. Total ^125I-(TCA precipitable) clearance from brain ISF consists of two components: clearance across the BBB and clearance via bulk flow of ISF. Therefore, clearance across the BBB was calculated from the difference between total ^125I-(TCA precipitable) clearance and ^14C-inulin clearance (ISF bulk flow) as described (Shibata et al., 2000). Similarly, the percentage ^125I-(TCA precipitable) recovery in brain after microinjection into the CSF=NB/NI×100.

[2] = Brain clearance technique: clearance of radiolabelled tracer from brain ISF and across the BBB after microinjection into the caudate nucleus; assay type: in vivo; conditions: for clearance from the brain ISF: 40 nM tracer microinjected into brain ISF, FIG. 1A/1B
Description: The brain clearance technique was used to determine Aβ clearance across the BBB and from CSF, as previously described (Shibata et al., 2000; Deane et al., 2004). Briefly, 0.5 μl of ^125I-Aβ42 (40 nM), ^125I-apoJ (40 nM) or ^125I-Aβ-apoJ (40 nM) was microinjected into the caudate nucleus simultaneously with ^14C-inulin (an inert reference molecule as an index of interstitial fluid (ISF) bulk flow) and, after 30 minutes (a typical time point unless stated), the brain was removed and radiolabel was counted.
^125I-Aβ-apoJ complex was prepared by incubating ^125I-Aβ42 and apoJ at a molar ratio of 15 to 1 (^125I-Aβ42: apoJ) at 37° C. for 3 hours, and excess ^125I-Aβ42 was removed by ultrafiltration with a 30 kD molecular weight cut-off membrane.
as §1

[3] = after microinjection into the brain, FIG. 1C

For “^125I-apoJ: apolipoprotein J, an 80 kDa sulfated glycoprotein, ligand of LRP2, radioiodinated tracer”, the “clearance from the CSF as compared to ^14C-inulin” value [1] was “rapidly cleared”, the “clearance from the brain ISF” value [2] was “rapidly cleared” and the “clearance from brain relative to ^125I-Aβ42 (40 nM)” value ([2]; 40 nM, time-dependent clearance, FIG. 1B) was “substantially faster”. The “levels in plasma, compared to inulin” value [2, 3] was “relatively increased” and the “time dependent appearance of TCA precipitable radioactivity in CSF, compared to ^14C-inulin” value [2, 3] was “decreased”.

With “^125I-Aβ42: amyloid-β peptide Aβ42, amyloidogenic with high β-sheet content, radioiodinated tracer [reference compound]” the “clearance of ^125I-Aβ42 across the BBB” value ([2]; in vivo) was 22%±2% and the “clearance via the ISF bulk flow” value ([2]; in vivo) was “no a significant change”.

With “inulin [^14C-inulin, reference compound]” the “clearance from the brain ISF” value [2] was “slowly removed”.
